Values of other authors, collected in publication PMC7228754.
pKd: −log10 of the molar value.

Target: Rab1b (Homo sapiens) (UniProt Q9H0U4)
Sequence (Q9H0U4 whole entry): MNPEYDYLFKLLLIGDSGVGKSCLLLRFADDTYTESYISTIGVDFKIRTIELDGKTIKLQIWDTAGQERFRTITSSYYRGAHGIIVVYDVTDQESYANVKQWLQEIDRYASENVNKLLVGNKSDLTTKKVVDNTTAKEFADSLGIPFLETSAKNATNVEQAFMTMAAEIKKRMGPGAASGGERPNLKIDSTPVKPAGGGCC

AnkX, sequence (Q5ZXN6 whole entry): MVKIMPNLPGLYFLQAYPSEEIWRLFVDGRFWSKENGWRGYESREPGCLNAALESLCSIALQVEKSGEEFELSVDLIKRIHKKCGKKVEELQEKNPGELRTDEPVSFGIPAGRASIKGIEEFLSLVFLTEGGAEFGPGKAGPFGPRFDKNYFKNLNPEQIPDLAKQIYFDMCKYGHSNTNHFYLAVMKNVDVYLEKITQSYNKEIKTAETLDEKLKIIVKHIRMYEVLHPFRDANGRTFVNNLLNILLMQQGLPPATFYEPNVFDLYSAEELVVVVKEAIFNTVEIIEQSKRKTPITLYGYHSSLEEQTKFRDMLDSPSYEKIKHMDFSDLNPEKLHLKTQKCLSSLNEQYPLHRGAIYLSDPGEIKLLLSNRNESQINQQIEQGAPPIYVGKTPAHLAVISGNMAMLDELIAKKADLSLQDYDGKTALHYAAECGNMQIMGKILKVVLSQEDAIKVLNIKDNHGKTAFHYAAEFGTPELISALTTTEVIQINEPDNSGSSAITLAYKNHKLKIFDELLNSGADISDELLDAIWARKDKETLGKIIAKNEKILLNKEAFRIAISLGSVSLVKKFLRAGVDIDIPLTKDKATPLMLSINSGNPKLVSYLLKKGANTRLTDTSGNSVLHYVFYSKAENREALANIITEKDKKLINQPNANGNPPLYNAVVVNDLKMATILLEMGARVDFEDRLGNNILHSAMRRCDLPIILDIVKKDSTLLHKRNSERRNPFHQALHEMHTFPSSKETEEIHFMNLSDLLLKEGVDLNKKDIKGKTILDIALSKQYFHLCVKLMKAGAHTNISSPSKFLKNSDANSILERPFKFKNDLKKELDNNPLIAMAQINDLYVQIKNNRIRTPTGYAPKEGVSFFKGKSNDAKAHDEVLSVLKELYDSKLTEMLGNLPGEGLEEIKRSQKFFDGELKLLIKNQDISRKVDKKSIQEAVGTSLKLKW

## AnkX (from UniProt Q5ZXN6)
  pKd: 3.91
